Experimental data published in doi:10.1101/2025.10.07.680968, “Widespread genomic heterogeneity at the type II NAD(P)H dehydrogenase locus predisposes Cryptosporidium to clofazimine resistance” (bioRxiv, 2025).

Tests used:
[1] = target: T1, CpNDH2 (CpNDH2-WT; MBP-CpNDH2) (Cryptosporidium parvum, UniProt F0X6E5); assay: inhibition of menadione reduction, NADH oxidation at […] nm; format: biochemical
T1 construct: gene cgd7_1900; full-length ORF (568 predicted residues), N-terminal MBP fusion from pMAL-c5X, E. coli BL21(DE3), amylose-resin purified
T1 sequence (F0X6E5 entry or part of it): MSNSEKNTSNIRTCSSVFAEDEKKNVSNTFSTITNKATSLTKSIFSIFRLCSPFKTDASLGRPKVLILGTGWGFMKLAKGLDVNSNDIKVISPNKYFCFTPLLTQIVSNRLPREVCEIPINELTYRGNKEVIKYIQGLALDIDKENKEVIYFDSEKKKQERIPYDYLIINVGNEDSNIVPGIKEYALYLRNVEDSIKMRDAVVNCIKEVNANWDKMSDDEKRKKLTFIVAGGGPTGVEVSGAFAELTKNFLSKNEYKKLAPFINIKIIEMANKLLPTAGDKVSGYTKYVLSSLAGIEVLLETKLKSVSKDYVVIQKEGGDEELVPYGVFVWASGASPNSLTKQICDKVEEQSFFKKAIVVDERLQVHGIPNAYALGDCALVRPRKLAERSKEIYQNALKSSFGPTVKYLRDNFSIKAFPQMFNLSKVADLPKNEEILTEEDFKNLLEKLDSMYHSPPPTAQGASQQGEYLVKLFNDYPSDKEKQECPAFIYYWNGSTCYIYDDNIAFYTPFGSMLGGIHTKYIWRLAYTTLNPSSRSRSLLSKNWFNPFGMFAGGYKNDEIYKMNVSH

[2] = test system: CC1=CC(=O)c2ccccc2C1=O; assay: purified protein; conditions: 400 μM NADH, pH 7.0, 25 °C, 0.1% Triton X-100, Michaelis-Menten
[3] = test system: CC(C)N=c1cc2n(-c3ccc(Cl)cc3)c3ccccc3nc-2cc1Nc1ccc(Cl)cc1; assay: purified protein; conditions: 400 μM NADH, pH 7.0, 25 °C, 0.1% Triton X-100, intact MBP fusion, positive cooperativity
[4] = test system: COC1=C(OC)C(=O)C(C/C=C(\C)CCC=C(C)C)=C(C)C1=O; assay: purified protein; conditions: 400 μM NADH, pH 7.0, 25 °C, 0.1% Triton X-100, intact MBP fusion, positive cooperativity
[5] = test system: CC(C)=CCC/C(C)=C/CC/C(C)=C/CC/C(C)=C/CC1=C(C)C(=O)c2ccccc2C1=O; assay: purified protein; conditions: 400 μM NADH, pH 7.0, 25 °C, 0.1% Triton X-100, intact MBP fusion, Michaelis-Menten

Row | Compound | IC50 [1] [nM] | Km [2] [µM] | K0.5 [3] [µM] | K0.5 [4] [µM] | Km [5] [µM]
1 | CC(C)/N=c1\cc2n(-c3ccc(Cl)cc3)c3ccccc3nc-2cc1Nc1ccc(Cl)cc1 [CFZ, clofazimine] | 2950 | – | – | – | –
2 | CpNDH2 (CpNDH2-WT; MBP-CpNDH2) (Cryptosporidium parvum) | – | 113.7 | 30.0 | 7.17 | 139.3
